Test results from patent US20140303084A1 (Biogen, published 2014).
Primed or numbered codes have the meaning given here. Ends that are not written are not given here. * marks the point of attachment. Biotin = O=C1N[C@H]2[C@H](CS[C@H]2CCCCC(=O)*)N1; PEG2(3) = PEG2 spacer carrying biotin on Lys; (PEG)4 = polyethylene glycol, 4 units

molecular target: human Factor IXa (human, UniProt P00740 47-191; P00740 227-461); experiment: cell-based or functional assay

| Binder | EC50 [µM], FXa generation assay [µM] |
| --- | --- |
| KLTCLASYCWLF-{(PEG)4-NH2} (cysteine pairing not given here) [KLTCLASYCWLF-(PEG)4-CONH2] | > 1 |
| {(PEG)27}-KLTCLASYCWLF (cysteine pairing not given here) [(PEG)27-KLTCLASYCWLF] | > 1 |
| {(PEG)27-(PEG)27}-KLTCLASYCWLF (cysteine pairing not given here) [(PEG)27(PEG)27-KLTCLASYCWLF] | > 1 |
| KLTCQASYCWLF | > 1 |
| KLTCLASQCWLF | < 0.5 |
| QQTCQASQCQLF | > 20 |
| NPTCQASYCQLF | > 20 |
| QLTCLASECGLS | > 20 |
| AQTRVARCCQLF | > 20 |
| KKTCVASFCQMI | > 5 |
| NLTGRASYGWLP | > 20 |
| KGRCLTSHCWLF | > 20 |
| TLTCRASYCQLF | > 1 |
| KLTCRASYCQLF | > 1 |
| KLSCQAGQCWVF | > 1 |
| KLTCLASYCQLV | < 0.5 |
| KLKCLSSECQLL | > 20 |
| QLTCLASYCGGV | > 20 |
| EQTCLASYCWLF | > 20 |
| QLPCLASYCGLF | > 20 |
| MLTCIASYCQLG | > 20 |
| SLADTQLTWLARQYWLSVSEGS | > 20 |
| RRCPGKLQALASYCWLFWTGIA | > 1 |

| Binder | EC50 [µM], FXa generation assay [µM] |
| --- | --- |
| DSRSAKRKCLASYCWLFGIGQA | > 20 |
| GASSDKLTCRTRHCSMFQPLSV | > 20 |
| GCSSDKLTARTRHCSMFQPLSV | > 20 |
| GSCRDQLTCLSSDRWQFFRRVS | > 20 |
| KEGFAQLPCLVCQGGLFSPRAI | > 20 |
| LRTQPKVTGLASCSGLVNCSRD | > 20 |
| RCAQSRLPWLVSYCWLFSPYGM | > 5 |
| LQELTKLTCLARSGWLVCNPGY | > 20 |
| WVPQWKVTCLASCSRLFHGFDA | > 5 |
| SCVKHELKCLSSDSRLFSAVQR | > 20 |
| VAHYGKVTCLASYCQPLPSVGA | > 20 |
| MEGTRQPTCLASYCSPFQYVAP | > 20 |
| RPGGGKVTCQASYCWPFLARAG | > 20 |
| ERYRLDMTCMASQCWQFPPAAG | < 0.5 |
| VGEHRKISCVASNCQLLRSGLA | > 20 |
| SISGQQLTCRASHCWLNLPWHS | > 20 |
| TLDSKNLQCLGSSCWLFSSGLS | > 20 |
| VQRSTQLTCLYGGCRLFGWNYH | > 20 |
| MAGMLKLTCFASYCGLFPLVSS | < 0.5 |
| GAQLDKETCLASYCQLFSTVRR | > 20 |
| HMQWGKLPCLASYCWLFWYGIG | > 1 |
| {Biotin-PEG2(3)}-LYTAWIKCQFARLPGCALSGRW (cysteine pairing not given here) [Biotin-PEG2-LYTAWIKCQFARLPGCALSGRW] | > 10 |
| LRQRLAKTCVASYCWLFSLVAS | > 10 |
